Results on twelve substances are retold here after patent US20110071077A1, “Thrombopoietic Compounds” (AMGEN INC., priority 2006, published 2011).

pEC50, pIC50: −log10 of the molar value. Bridge positions count the residues as written; N and C are the ends. Ends that are not written are not given here. PEG = not defined here

For experiment [1], the system named is Normal female BDF1 mice. Nature of the experiment: platelets in mice, 7-day micro-osmotic pumps. The format is in vivo. As for the experimental part:
Mice. Normal female BDF1 approximately 10-12 weeks of age.
Bleed schedule. Ten mice per group treated on day 0, two groups started 4 days apart for a total of 20 mice per group. Five mice bled at each time point, mice were bled a minimum of three times a week. Mice were anesthetized with isoflurane and a total volume of 140-160 μl of blood was obtained by puncture of the orbital sinus. Blood was counted on a Technicon H1E blood analyzer running software for murine blood. Parameters measured were white blood cells, red blood cells, hematocrit, hemoglobin, platelets, neutrophils.
Treatments. Mice were either injected subcutaneously for a bolus treatment or implanted with 7 day micro-osmotic pumps for continuous delivery. Subcutaneous injections were delivered in a volume of 0.2 ml. Osmotic pumps were inserted into a subcutaneous incision made in the skin between the scapulae of anesthetized mice. Compounds were diluted in PBS with 0.1% BSA. All experiments included one control group, labeled “carrier” that were treated with this diluent only. The concentration of the test articles in the pumps was adjusted so that the calibrated flow rate from the pumps gave the treatment levels indicated in the graphs.
Compounds. A dose titration of the compound was delivered to mice in 7 day micro-osmotic pumps. Mice were treated with various compounds at a single dose of 100 ug/kg in 7 day osmotic pumps. Some of the same compounds were then given to mice as a single bolus injection.

Experiment [2] addresses T1, human mpl receptor (Homo sapiens, UniProt P40238).
T1 construct: IL-3 dependent clone of murine 32D cells transfected with the full-length c-Mpl; expressed in transfected cells; host or cells: IL-3 dependent clone of murine 32D cells
T1 sequence (P40238 26-635): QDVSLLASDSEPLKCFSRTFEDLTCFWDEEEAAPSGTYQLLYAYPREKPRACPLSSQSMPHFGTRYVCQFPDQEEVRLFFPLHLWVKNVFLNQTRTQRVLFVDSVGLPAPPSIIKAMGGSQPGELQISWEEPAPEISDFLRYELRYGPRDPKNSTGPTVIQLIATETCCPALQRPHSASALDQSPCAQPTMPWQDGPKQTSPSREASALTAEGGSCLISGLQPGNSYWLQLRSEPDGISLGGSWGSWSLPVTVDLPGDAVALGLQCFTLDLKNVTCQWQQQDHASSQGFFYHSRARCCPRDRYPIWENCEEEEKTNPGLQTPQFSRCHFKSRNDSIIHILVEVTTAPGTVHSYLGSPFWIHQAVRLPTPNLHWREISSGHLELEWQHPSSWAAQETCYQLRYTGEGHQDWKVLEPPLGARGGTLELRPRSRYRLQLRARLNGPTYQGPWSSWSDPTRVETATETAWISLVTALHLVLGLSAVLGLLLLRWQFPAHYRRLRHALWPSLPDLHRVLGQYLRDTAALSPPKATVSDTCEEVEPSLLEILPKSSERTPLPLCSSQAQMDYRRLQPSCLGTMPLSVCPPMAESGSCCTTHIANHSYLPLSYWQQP
Nature of the experiment: TPO in vitro bioassay, mitogenic assay in IL-3 dependent murine 32D cells. Format: cell-based. The conditions noted are these: for Relative Potency: in terms of EC50, numerals indicate approximately 1 log of activity. As for the experimental part:
Bioactivity assay. The TPO in vitro bioassay is a mitogenic assay utilizing an IL-3 dependent clone of murine 32D cells that have been transfected with human mpl receptor. This assay is described in greater detail in WO 95/26746. Cells are maintained in MEM medium containing 10% Fetal Clone II and 1 ng/ml mIL-3. Prior to sample addition, cells are prepared by rinsing twice with growth medium lacking mIL-3. An extended twelve point TPO standard curve is prepared, ranging from 3333 to 39 pg/ml. Four dilutions, estimated to fall within the linear portion of the standard curve, (1000 to 125 pg/ml), are prepared for each sample and run in triplicate. A volume of 100 μl of each dilution of sample or standard is added to appropriate wells of a 96 well microtiter plate containing 10,000 cells/well. After forty-four hours at 37° C. and 10% CO2, MTS (a tetrazolium compound which is bioreduced by cells to a formazan) is added to each well. Approximately six hours later, the optical density is read on a plate reader at 490 nm. A dose response curve (log TPO concentration vs. O.D.-Background) is generated and linear regression analysis of points which fall in the linear portion of the standard curve is performed. Concentrations of unknown test samples are determined using the resulting linear equation and a correction for the dilution factor. […]

Experiment [3] addresses T2, c-Mpl receptor (Homo sapiens, UniProt P40238).
T2 sequence (P40238 26-635): T1 sequence (P40238 26-635)
Particulars: cited from earlier work.

Experiment [4] deals with T3, c-Mpl (Homo sapiens, UniProt P40238).
T3 sequence (P40238 26-491 limits assumed): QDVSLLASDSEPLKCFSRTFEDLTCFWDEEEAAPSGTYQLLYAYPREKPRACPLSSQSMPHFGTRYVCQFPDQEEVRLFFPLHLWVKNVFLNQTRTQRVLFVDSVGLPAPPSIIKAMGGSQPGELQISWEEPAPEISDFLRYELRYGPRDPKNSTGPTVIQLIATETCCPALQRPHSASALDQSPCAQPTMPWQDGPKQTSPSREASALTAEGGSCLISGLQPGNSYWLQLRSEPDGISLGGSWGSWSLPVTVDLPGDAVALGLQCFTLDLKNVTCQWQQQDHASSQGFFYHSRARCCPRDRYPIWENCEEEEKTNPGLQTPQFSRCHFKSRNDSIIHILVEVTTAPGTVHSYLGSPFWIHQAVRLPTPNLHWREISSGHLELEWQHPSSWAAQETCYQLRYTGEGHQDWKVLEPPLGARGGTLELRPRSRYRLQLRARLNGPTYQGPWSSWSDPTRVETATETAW
The conditions noted are these: cited from earlier work.

Consider “TMP-GGGC(PEG)GGGG-TMP (IEGPTLRQWLAARAGGGC(PEG)GGGGIEGPTLRQWLAARA; reading uncertain) [peptide 20]”, for which, in experiment [1] (10 μg/kg/day), the “activity compared with unpegylated rHu-MGDF” value is recorded as “about equally active as 100 μg/kg/day unpegylated rHu-MGDF” and the “activity relative to maximum” value is given as “about 50%”. Further, the “dose of maximum effect” value in experiment [1] (dose response, data not shown) worked out at 100 µg/kg/day. Moreover, the “lowest dose at which activity could be seen” value in experiment [1] (mouse, in vivo) is 1 µg/kg/day. In experiment [2], the “in vitro bioactivity in words” value is “even higher in vitro bioactivity as compared to their unpegylated counterparts” and the “Relative Potency” value was determined as 5.0.
With “TMP-GPNG-TMP (IEGPTLRQWLAARAGPNGIEGPTLRQWLAARA) [peptide 13]”, in experiment [2], the “increase in potency as compared to the monomer” value is recorded as “about 100 fold” and the “Relative Potency” value stood at 3.0.
For “TMP-GGGNGSGG-TMP (IEGPTLRQWLAARAGGGNGSGGIEGPTLRQWLAARA) [compound 21]”, in experiment [2], the “in vitro bioactivity in words” value is listed as “activity comparable to that of the -(Gly)8- linked analog” and the “Relative Potency” value was determined as 4.0.
In the case of “IEGPTLRQCLAARA-GGGGGGGG-IEGPTLRQCLAARA (IEGPTLRQCLAARAGGGGGGGGIEGPTRLQCLAARA) [compound 15]”, in experiment [2], the “in vitro bioactivity in words” value was “inactive” and the “Relative Potency” value came out at 0.5.
As to “TPO: native TPO protein, endogenous thrombopoietin”, the “Relative Potency” value in experiment [2] stood at 4.0.
The term pEC50 denotes the EC50 on a negative log10 scale, so that one unit is a factor of ten. As for “IEGPTLRQWLAARAARAALWQRLTPGEI [TMP C-C dimer, reference compound]”, the pEC50 in experiment [3] is 10.00. The binding affinity in experiment [4] is 0.5 nM. In experiment [2], the “in vitro bioactivity in words” value is listed as “lower than that of the native TPO protein” and the “Relative Potency” value is given as 3.5.
On to “IEGPTLRQALAARA-GGGGGGGG-IEGPTLRQALAARA (IEGPTLRQALAARAGGGGGGGGIEGPTLRQALAARA) [peptide 16]”, for which, in experiment [2], the “in vitro bioactivity in words” value is “inactive” and the “Relative Potency” value was 0.5.
Take “TMP-GGGK(PEG)GGGG-TMP (IEGPTLRQWLAARAGGGK(PEG)GGGGIEGPTLRQWLAARA; reading uncertain) [peptide 19]”: in experiment [2], the “in vitro bioactivity in words” value is listed as “even higher in vitro bioactivity as compared to their unpegylated counterparts” and the “Relative Potency” value came to 5.0.
For orientation: pIC50 means the negative decadic logarithm of the IC50, by convention in mol/L. As for “IEGPTLRQWLAARA [TMP monomer, 14-residue TPO Mimetic Peptide (Cwirla et al.)]”, the pEC50 in experiment [3] was 6.40. Moreover, the pIC50 in experiment [4] was 8.70. Also, in experiment [2], the “Relative Potency” value is listed as 1.0.
As for “TMP-GGGKGGGG-TMP (IEGPTLRQWLAARAGGGKGGGGIEGPTLRQWLAARA) [peptide 17a]”, in experiment [2], the “Relative Potency” value was 4.0.
On the same count and under the same terms, the same measure for “TMP-GGGCGGGG-TMP (IEGPTLRQWLAARAGGGCGGGGIEGPTLRQWLAARA) [peptide 18]”: 4.0.
With “peptide 14: Trp in each TMP monomer replaced with Cys, intramolecular disulfide bond between the two cysteines (IEGPTLRQCLAARAGGGGGGGGIEGPTLRQCLAARA; disulfide 9-31)”, in experiment [2], the “in vitro bioactivity in words” value is “inactive” and the “Relative Potency” value is 0.5.
